Measured values taken from the nanobody polyreactivity screen of Harvey et al. (2022).

Experiment: yeast display, Sf9 membrane polyspecificity reagent, FACS + sequencing; frameworks hold sequencing errors
Summary of the method: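 Galactose-induced (36–48 hours) yeast carrying a synthetic nanobody display library were exposed to 10% biotinylated, detergent-solubilized Sf9 membrane reagent at 4 °C for 1 hour. FACS followed streptavidin microbead enrichment, using low and high (top ~1%) gates for expression (anti-HA) and reagent binding (streptavidin). Colony PCR, MiSeq 2 × 250 sequencing and CDR-length filtering followed. Labels for polyreactivity reflect the gate of origin.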

Sequence	polyreactivity (PSR sort gate)
QVQLVESGGGLVQAGGSLRLSCAASGRIFYYNAMGWYRQAHGKERELVAAISFSDGSTYYADSVKGRFTISRDNAKNTVYLQMNSLKPEDTAVYYCAADIGYDYDYWGQGTQVTVSS	low polyreactivity
QVQLVESGGGLVQAGGSLRLSCAASGRIFYYNAMGWYRQAPGKERELVAAISGSGGRTYYADSVKGRFTISRDNAKNTVYLQMNSLKPEDTAVYYCAAAGYDSNGRYWGQGTQVTVSS	high polyreactivity
QVQLVESGGGLVQAGGSLRLSCAASGRIFYYNAMGWYRQAPGKERELVAAITSGGSTNYADSVKGRFTISPDNAKNTVYLQMNSLKPEDTAVYYCNARRYGSPRSEVHYDYCGQGTQVTVSS	low polyreactivity
QVQLVESGGGLVQAGGSLRLSCAASGRIFYYNAMGWYRQAPGKERELVAAITSVGSTNYADSVKGSFTISRDNAKNTVYLQMNSLKPEDTAVYYCARASAWYVTLVGKYTKYDYWGQGTQVTVSS	low polyreactivity
QVQLVESGGGLVQAGGSLRLSCAASGRIFYYNTMGWYRQAPGKERELVAAITRSGGSTYYADSVKGRFTISRDNAKNTVYLQMNSLKPEDTAVYYCAARSTHPGSVGYWGQGTQVTVSS	high polyreactivity
QVQLVESGGGLVQAGGSLRLSCAASGRIFYYNTMGWYRQAPGKESELVAAISWSGGSTFYADSVKGRFTISRDNAKNTVYLQMNSLKPEDTAVYYCARYKLRSGRSGDHDDYWGQGTQVTVSS	high polyreactivity
QVQLVESGGGLVQAGGSLRLSCAASGRIFYYYAMGWYRQAPGKERELVAAISWSGGSTYYADSVKGRFTISRDNAKNTVYLQMNSLKPEDTAVYYCAAESRKYREYYFWGQGTQVTVSS	high polyreactivity
QVQLVESGGGLVQAGGSLRLSCAASGRIFYYYAMGWYRQAPGKERELVAAITRRGGSTYYADSVKGRFTISRDNAKNTVYLQMNSLKPEDTAVYYCAKPDRTGWLDGDYWGQGTQVTVSS	low polyreactivity
QVQLVESGGGLVQAGGSLRLSCAASGRIFYYYAMRWYRQAPGKERELVATISGIGGSTYYADSVKGRFTISRDNAKNTVYLHMNSLKPEDTAVYYCNADYPTSYPLLKSGFDYWGQGTQVTVSS	low polyreactivity
QVQLVESGGGLVQAGGSLRLSCAASGRIFYYYDMGWYRQAPGKERELVATMSGIGGSTYYADSVKGLFTISRDHAKNTVYLQMNSLKPEDTAVYYCNADYPTSYPLFKTGFDYWGQGTQVTVSS	low polyreactivity
QVQLVESGGGLVQAGGSLRLSCAASGRIFYYYTMGWYRQAPGKERELVAALTRSGSSTYADSVKGRFTISRDNAKNTVYLQMNSLKAEVTAVYYCAADYIRRYDYWGQGTQVTVSS	low polyreactivity
QVQLVESGGGLVQAGGSLRLSCAASGRIGYNVMGWYRPAPGKERELVADISRGGGRTYYADSVKGRFTISRDNAKNTVYLQMNSLKPEDTAVYYCNAVTYYVDGGWYDYDYWGQGTQVTVSS	high polyreactivity
QVQLVESGGGLVQAGGSLRLSCAASGRIGYYAMGWNRQAPGKERELVAAISYGGGSTYYADSVKGRFTISRDNAKNTVYLLMNSLKPEDTAVYYCAARWGKSWRGYGYWGQGTQVSVSS	high polyreactivity
QVQLVESGGGLVQAGGSLRLSCAASGRIGYYAMGWYRQAPGKERELVAAISYGGGSTYYADSVKGRFTISRDNAKNTVYLQMNSLKPEDTAVYYCAARWGISWRGYGYWGQGTQVTVSS	high polyreactivity
QVQLVESGGGLVQAGGSLRLSCAASGRIIAGYAMGLYRQAPGKERELVAAISSGGSTYYADSVKGRFTISRDNAKNTVYLQMNSLKPSDTAVYYCAAGGPRVYGTKFYYCGQGTQVTVSS	high polyreactivity
QVQLVESGGGLVQAGGSLRLSCAASGRIIDNNAMGWYRPAPGKERQLVAAISWSGTSTYYADSVKGRFTISRDHAKNTVYLQMNSLKPEDTAVYYCNADSWFYTRFDYWGQGTQVTVSS	high polyreactivity
QVQLVESGGGLVQAGGSLRLSCAASGRIIGFNAMGWYIQAPAKERELVASIRTTGGSTRYADSVKWRFTISRDNATNTVYLQMNSLKPEDTAVYYCADRWCKTLWQYNYWGQGTQVTVSS	high polyreactivity
QVQLVESGGGLVQAGGSLRLSCAASGRIIGQYAMGWYRQAPGKERELVAAITQRGGSTYYADSVKGRFTISRDNAKNTVYLLMNCLKPEDTAVYYCNKRYRFTGIRDPFDYWGQGTQVTVSS	low polyreactivity
QVQLVESGGGLVQAGGSLRLSCAASGRIIGRYAMGWYRQAPGKERELVAGITIRGGSTYYADSVKGRITISRDNAKNTVYLQMNSLKPEDTAVYYCAADDKGGLAVEYDYWGQGTQVTVSS	low polyreactivity
QVQLVESGGGLVQAGGSLRLSCAASGRIIGSNTMGWYRQAPGKEREFVATISSSGGSTYYADSVKGRFTISRDNAKNTVYLQMNSLKPEDTAVYYCNTRRRYPFRPYPEWRNYYWGHGTQVTVSS	high polyreactivity
QVQLVESGGGLVQAGGSLRLSCAASGRIIKFYAMGWYRQAPGKERELVAVIRSGTRTKYADSVKGRFTISRDNAKNTVYLQMNSLKPVDTAVYYCIRYFSEALLHGSSYNRYYYWGQGTQVTVSS	low polyreactivity
QVQLVESGGGLVQAGGSLRLSCAASGRIIQRYAMGWYRQAPGKERELVATITFNTASTYYADSVKGRFTISRDNAQNTVYLQMNSLKPEDTAVYYCAAKHRGGYGYWGQGTQVTVSS	high polyreactivity

Sequence	polyreactivity (PSR sort gate)
QVQLVESGGGLVQAGGSLRLSCAASGRIIRYYAMGWYRQAPGKERELVAAISKSGGSTYYADSVKGRFTISRDNAKNTVYLQMNSMKREDTAVFFCAAGTSRYVYHSYGKYEYWGQGTQVTVSS	high polyreactivity
QVQLVESGGGLVQAGGSLRLSCAASGRIIRYYAMGWYRQAPGKERELVATISRSGGSTFYADSVKGRFTISRDNAKNTVYLQMNSLKPEDTAVYYCNARYQTGGYGYWGQGTQVTVSS	high polyreactivity
QVQLVESGGGLVQAGGSLRLSCAASGRIIRYYAMGWYRQAPGKETELVAITSSGGRTYYADSVKGRFTISRDNAKNTVYLQMNSLKPEDTAVYYCAVDAHWPGRGERFIRLDYWGQGTQVSVSS	low polyreactivity
QVQLVESGGGLVQAGGSLRLSCAASGRIISRYAMGWYRQAPGKERELVATITWSTTSTYYADSVKGRFTISRDNAKNTVYLQMNSLKPEDTAVYYCAASIIPGFRRDPFGYWGQGTQVTVSS	low polyreactivity
QVQLVESGGGLVQAGGSLRLSCAASGRIITKYTMGWYRQAPGKVRELVAAISRSDRTNYADSVKGRFTISRDNAKNTVYLQMNSLKPEDTAVYYCNARHSYWTGRRVTDDYDYRGQGTQVTVSS	high polyreactivity
QVQLVESGGGLVQAGGSLRLSCAASGRIITTYAMGWYRQAPGKERELVAAISRSSGSTYYADSVKGRFTISRDNAKNTVYLQMNSLKPEDTAVYYCNAYQRKSGRYDYWGQGTQVTVSS	high polyreactivity
QVQLVESGGGLVQAGGSLRLSCAASGRIITWYAMGCYRQAPGKERELVAAISWSGGSTYYADSVTGRFTISRDNAKNTVYLQMNSLKPEDTAVYYCNKVTVTGLYDYWGQGTQVTVSS	high polyreactivity
QVQLVESGGGLVQAGGSLRLSCAASGRIIVKYAMRSYRQAPGKERELVAAITNSGGRTYYAACVKGRFTISRDNAKNTVYFQMNSLKPEDTAVYYCAALFHASTRQMDYWGQGTQVTVSS	high polyreactivity
QVQLVESGGGLVQAGGSLRLSCAASGRIIVLYAMGWYRQAPGKERELVASIRSGGSTNYADSVKGRFTISRDNAKNTVYLQMNSLKPEDTAVYYCAARIRSVVPFDMDYWGQGTQVTVSS	low polyreactivity
QVQLVESGGGLVQAGGSLRLSCAASGRIIVLYAMGWYRQAPGKERELVASIRSGGSTNYADSVKGRFTISRDNAKNTVYLQMNSLKPEDTAVYYCAARPDHKRYDYWGQGTQVTVSS	low polyreactivity
QVQLVESGGGLVQAGGSLRLSCAASGRIIVPYVMGWYRLAPGKERELVAAISTSGTSTYYADSVKGRFTISRDNAKNTVYLQMNSLKPEDTAVYYCAKRSGARHRLMDYWGQGTQVTVSS	low polyreactivity
QVQLVESGGGLVQAGGSLRLSCAASGRIIYTNALGWYRQAPGKERELVAAINRSGGITYYADSVKGRFTISRDNAKNTVYLQMNSLKPEDTAVYYCAKDYSWASYNHDYWGQGTQVTVSS	low polyreactivity
QVQLVESGGGLVQAGGSLRLSCAASGRILAGYAMGWYRQAPGKERELVAAITRGGTTYYADSVKGRFTISRDNAKYTVYLQMNSLKPEDTAVVYTVSSAQYDYWGQGTQVTVSS	low polyreactivity
QVQLVESGGGLVQAGGSLRLSCAASGRILAGYTMGWYRQAPGKERELVAAISDRGGSTYYADSVKGRFTISRDNAKNTVYLQMNSLKPEDTAVYYCNAVVYSYALTPSYAGDYWGQGTQVTVSS	low polyreactivity
QVQLVESGGGLVQAGGSLRLSCAASGRILAPYAMGWYRQAPGKERELVAAISASGGTTYYADSVKGRFTISRDNAKNTVYLQMNSLKPEDTAVYYCNARWSPGNLRYGREGDYWGQGTQVTVSS	high polyreactivity
QVQLVESGGGLVQAGGSLRLSCAASGRILAYYAMGWYRQAPGKERELVDAINRSGVRTYYADSVKGRFTISRDYAKNTVYLQMNSLKPEDTAVYYCAAPGQHSWGQGTQVTVSS	high polyreactivity
QVQLVESGGGLVQAGGSLRLSCAASGRILDANDMGWYRQAPGKERELVAGINSGGSTYYADSVKGRFTISRDNAKNTVYLQMNSLKPEDTAVYYCAAGGVSAKYDYWGQGTQVTVSS	low polyreactivity
QVQLVESGGGLVQAGGSLRLSCAASGRILDINTMGWYRHPPGKERELVAAITWSGVSTYYADSVKGRFTISRDNAKNTVYLQMNSLKPEDTAVYYCAARPYYTWRYLPTKSGDYWGQGTQVTVSS	low polyreactivity
QVQLVESGGGLVQAGGSLRLSCAASGRILDYNAMGWYIQAPGKERELVAAITLNGGGTYYADSVKGRFTISRDNAKNSVYLQMNSLKPEDTAVYYCNADYRRYPEFDYWGQGTHVTVSS	high polyreactivity
QVQLVESGGGLVQAGGSLRLSCAASGRILDYNAMGWYRQAPGKERELVADISGSGDSTYYADSVKGRFTISRDNAKNTVYLQMNSLKPEDTAVYYCNRQTVRPHSRAGYDYWGQGTQVTVSS	low polyreactivity
QVQLVESGGGLVQAGGSLRLSCAASGRILELNAMGWYRQAPGKERELVAGISNSGDTTYYADSVKGRFTISRDNAKNTVYLQMNSLKPEDTAVYYCNADGVVTWYDYWGQGTQVTVSS	low polyreactivity
